Experimental data: US20260049138A1 (Chugai, published 2026)
Where a chain is given by its changes, count along the chain named. Names and notes keep the numbering of the source.

B1: CE115HA000 A56Q one-arm antibody (antibody, human IgG1, kappa, L234A L235A, N297A, name in Kabat numbering)
heavy: QVQLVESGGGVVQPGRSLRLSCAASGFTFSNAWMHWVRQAPGKGLEWVAQIKAKSNNYQTYYAESVKGRFTISRDDSKNSLYLQMNSLKTEDTAVYYCRYVHYGAYYGVDAWGQGTTVTVSSASTKGPSVFPLAPSSKSTSGGTAALGCLVKDYFPEPVTVSWNSGALTSGVHTFPAVLQSSGLYSLSSVVTVPSSSLGTQTYICNVNHKPSNTKVDKKVEPKSCDKTHTCPPCPAPEAAGGPSVFLFPPKPKDTLMISRTPEVTCVVVDVSHEDPEVKFNWYVDGVEVHNAKTKPREEQYASTYRVVSVLTVLHQDWLNGKEYKCKVSNKALPAPIEKTISKAKGQPREPQVYTLPPSRCELTKNQVSLSCAVKGFYPSDIAVEWESNGQPENNYKTTPPVLDSDGSFFLVSKLTVDKSRWQQGNVFSCSVMHEALHNHYTQKSLSLSPDYKDDDDK
chain: EPKSSDKTHTCPPCPAPELLGGPSVFLFPPKPKDTLMISRTPEVTCVVVDVSHEDPEVKFNWYVDGVEVHNAKTKPREEQYNSTYRVVSVLTVLHQDWLNGKEYKCKVSNKALPAPIEKTISKAKGQPREPQVCTLPPSRDELTKNQVSLWCLVKGFYPSDIAVEWESNGQPENNYKTTPPVLDSDGSFFLYSKLTVDKSRWQQGNVFSCSVMHEALHNRYTQKSLSLSP
light: DIVMTQSPLSLPVTPGEPASISCRSSQSLVHSNRNTYLHWYQQKPGQAPRLLIYKVSNRFSGVPDRFSGSGSGTDFTLKISRVEAEDVGVYYCGQGTQVPYTFGQGTKLEIKRTVAAPSVFIFPPSDEQLKSGTASVVCLLNNFYPREAKVQWKVDNALQSGNSQESVTEQDSKDSTYSLSSTLTLSKADYEKHKVYACEVTHQGLSSPVTKSFNRGEC
B2: CE115HA000 A56Y one-arm antibody (antibody, human IgG1, kappa, L234A L235A, N297A, name in Kabat numbering)
heavy: B1 heavy with Q59Y
chain: B1 chain
light: B1 light
B3: CE115HA000 A60D one-arm antibody (antibody, human IgG1, kappa, L234A L235A, N297A, name in Kabat numbering)
heavy: B1 heavy with Q59A, A63D
chain: B1 chain
light: B1 light
B4: CE115HA000 A60E one-arm antibody (antibody, human IgG1, kappa, L234A L235A, N297A, name in Kabat numbering)
heavy: B1 heavy with Q59A, A63E
chain: B1 chain
light: B1 light
B5: CE115HA000 A99D one-arm antibody (antibody, human IgG1, kappa, L234A L235A, N297A, name in Kabat numbering)
heavy: B1 heavy with Q59A, A105D
chain: B1 chain
light: B1 light
B6: CE115HA000 A99F one-arm antibody (antibody, human IgG1, kappa, L234A L235A, N297A, name in Kabat numbering)
heavy: B1 heavy with Q59A, A105F
chain: B1 chain
light: B1 light
B7: CE115HA000 A99K one-arm antibody (antibody, human IgG1, kappa, L234A L235A, N297A, name in Kabat numbering)
heavy: B1 heavy with Q59A, A105K
chain: B1 chain
light: B1 light
B8: CE115HA000 A99L one-arm antibody (antibody, human IgG1, kappa, L234A L235A, N297A, name in Kabat numbering)
heavy: B1 heavy with Q59A, A105L
chain: B1 chain
light: B1 light
B9: CE115HA000 A99Q one-arm antibody (antibody, human IgG1, kappa, L234A L235A, N297A, name in Kabat numbering)
heavy: B1 heavy with Q59A, A105Q
chain: B1 chain
light: B1 light
B10: CE115HA000 A99S one-arm antibody (antibody, human IgG1, kappa, L234A L235A, N297A, name in Kabat numbering)
heavy: B1 heavy with Q59A, A105S
chain: B1 chain
light: B1 light
B11: CE115HA000 A99T one-arm antibody (antibody, human IgG1, kappa, L234A L235A, N297A, name in Kabat numbering)
heavy: B1 heavy with Q59A, A105T
chain: B1 chain
light: B1 light
B12: CE115HA000 A99Y one-arm antibody (antibody, human IgG1, kappa, L234A L235A, N297A, name in Kabat numbering)
heavy: B1 heavy with Q59A, A105Y
chain: B1 chain
light: B1 light
B13: CE115HA000 A102I one-arm antibody (antibody, human IgG1, kappa, L234A L235A, N297A, name in Kabat numbering)
heavy: B1 heavy with Q59A, A111I
chain: B1 chain
light: B1 light
B14: CE115HA000 A102P one-arm antibody (antibody, human IgG1, kappa, L234A L235A, N297A, name in Kabat numbering)
heavy: B1 heavy with Q59A, A111P
chain: B1 chain
light: B1 light
B15: CE115HA000 A102V one-arm antibody (antibody, human IgG1, kappa, L234A L235A, N297A, name in Kabat numbering)
heavy: B1 heavy with Q59A, A111V
chain: B1 chain
light: B1 light
B16: CE115HA000 A102Y one-arm antibody (antibody, human IgG1, kappa, L234A L235A, N297A, name in Kabat numbering)
heavy: B1 heavy with Q59A, A111Y
chain: B1 chain
light: B1 light
B17: CE115HA000 D72A one-arm antibody (antibody, human IgG1, kappa, L234A L235A, N297A, name in Kabat numbering)
heavy: B1 heavy with Q59A, D75A
chain: B1 chain
light: B1 light
B18: CE115HA000 D72E one-arm antibody (antibody, human IgG1, kappa, L234A L235A, N297A, name in Kabat numbering)
heavy: B1 heavy with Q59A, D75E
chain: B1 chain
light: B1 light
B19: CE115HA000 D72V one-arm antibody (antibody, human IgG1, kappa, L234A L235A, N297A, name in Kabat numbering)
heavy: B1 heavy with Q59A, D75V
chain: B1 chain
light: B1 light
B20: CE115HA000 D73A one-arm antibody (antibody, human IgG1, kappa, L234A L235A, N297A, name in Kabat numbering)
heavy: B1 heavy with Q59A, D76A
chain: B1 chain
light: B1 light
B21: CE115HA000 D73E one-arm antibody (antibody, human IgG1, kappa, L234A L235A, N297A, name in Kabat numbering)
heavy: B1 heavy with Q59A, D76E
chain: B1 chain
light: B1 light
B22: CE115HA000 D73G one-arm antibody (antibody, human IgG1, kappa, L234A L235A, N297A, name in Kabat numbering)
heavy: B1 heavy with Q59A, D76G
chain: B1 chain
light: B1 light
B23: CE115HA000 D73K one-arm antibody (antibody, human IgG1, kappa, L234A L235A, N297A, name in Kabat numbering)
heavy: B1 heavy with Q59A, D76K
chain: B1 chain
light: B1 light
B24: CE115HA000 D73N one-arm antibody (antibody, human IgG1, kappa, L234A L235A, N297A, name in Kabat numbering)
heavy: B1 heavy with Q59A, D76N
chain: B1 chain
light: B1 light
B25: CE115HA000 D73R one-arm antibody (antibody, human IgG1, kappa, L234A L235A, N297A, name in Kabat numbering)
heavy: B1 heavy with Q59A, D76R
chain: B1 chain
light: B1 light
B26: CE115HA000 D73T one-arm antibody (antibody, human IgG1, kappa, L234A L235A, N297A, name in Kabat numbering)
heavy: B1 heavy with Q59A, D76T
chain: B1 chain
light: B1 light
B27: CE115HA000 D101A one-arm antibody (antibody, human IgG1, kappa, L234A L235A, N297A, name in Kabat numbering)
heavy: B1 heavy with Q59A, D110A
chain: B1 chain
light: B1 light
B28: CE115HA000 D101F one-arm antibody (antibody, human IgG1, kappa, L234A L235A, N297A, name in Kabat numbering)
heavy: B1 heavy with Q59A, D110F
chain: B1 chain
light: B1 light
B29: CE115HA000 D101G one-arm antibody (antibody, human IgG1, kappa, L234A L235A, N297A, name in Kabat numbering)
heavy: B1 heavy with Q59A, D110G
chain: B1 chain
light: B1 light
B30: CE115HA000 D101H one-arm antibody (antibody, human IgG1, kappa, L234A L235A, N297A, name in Kabat numbering)
heavy: B1 heavy with Q59A, D110H
chain: B1 chain
light: B1 light
B31: CE115HA000 D101I one-arm antibody (antibody, human IgG1, kappa, L234A L235A, N297A, name in Kabat numbering)
heavy: B1 heavy with Q59A, D110I
chain: B1 chain
light: B1 light
B32: CE115HA000 D101K one-arm antibody (antibody, human IgG1, kappa, L234A L235A, N297A, name in Kabat numbering)
heavy: B1 heavy with Q59A, D110K
chain: B1 chain
light: B1 light

Molecular target: T1, CD3ε homodimer protein (human, UniProt P07766 23-126, limits assumed, sulfo-tag or biotin label in the ECL assays; amine-coupled to the chip in SPR)
T1 construct: also called human CD3ε homodimer protein; CD3 (CD3ε)
Assay: SPR Biacore T200; CD3ε homodimer on CM4 chip;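 note: Single-residue variant antibodies injected as analyte over CD3ε homodimer immobilized by amine coupling, run at 25 °C in HBS-EP+ buffer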
Method: An appropriate amount of CD3ε homodimer protein was immobilized onto Sensor chip CM4 (GE Healthcare Japan Corp.) by the amine coupling method. Then, the antibody having an appropriate concentration was injected thereto as an analyte and allowed to interact with the CD3ε homodimer protein on the sensor chip. Then, the sensor chip was regenerated by the injection of 10 mmol/L glycine-HCl (pH 1.5). The assay was conducted at 25° C., and HBS-EP+ (GE Healthcare Japan Corp.) was used as a running buffer. […] Each parameter was calculated using Biacore T200 Evaluation Software (GE Healthcare Japan Corp.).

T1 sequence (P07766 23-126 limits assumed): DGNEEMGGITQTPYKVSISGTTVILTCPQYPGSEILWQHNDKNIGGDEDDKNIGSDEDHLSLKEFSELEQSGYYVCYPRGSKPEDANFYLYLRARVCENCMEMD

Row | Binder | ratio of amounts bound Z=Y/X (altered form / CE115HA000)
1 | B1 | 0.76
2 | B2 | 0.66
3 | B3 | 0.99
4 | B4 | 0.94
5 | B5 | 0.28
6 | B6 | 1.43
7 | B7 | 1.48
8 | B8 | 1.13
9 | B9 | 0.91
10 | B10 | 0.82
11 | B11 | 0.84
12 | B12 | 1.59
13 | B13 | 1.48
14 | B14 | 0.14
15 | B15 | 1.43
16 | B16 | 0.91

Row | Binder | ratio of amounts bound Z=Y/X (altered form / CE115HA000)
17 | B17 | 1.41
18 | B18 | 1.05
19 | B19 | 1.43
20 | B20 | 0.83
21 | B21 | 0.73
22 | B22 | 1.07
23 | B23 | 0.87
24 | B24 | 0.94
25 | B25 | 1.04
26 | B26 | 0.63
27 | B27 | 1.26
28 | B28 | 0.75
29 | B29 | 1.38
30 | B30 | 1.21
31 | B31 | 1.18
32 | B32 | 0.63
